According to patent US5977442A, “Salicylic acid induced map kinase and its use for enhanced disease resistance in plants” (priority 1997, dated 1999):

What was measured:
[1] = tested on: MBP; assay: Basal phosphorylation activity of recombinant SIP kinase produced in E. coli; format: biochemical; conditions: recombinant protein from E. coli
Text: A tobacco clone that encodes an exemplary SIP kinase of the invention is described in detail herein. The nucleotide sequence of a cDNA encoding tobacco SIP kinase is set forth below as Sequence I.D. No. 1. It is believed that Sequence I.D. No. 1 constitutes a full-length SIP kinase-encoding clone as it contains a suitable methionine for initiation of translation.
Optionally, transgenic plants would be created containing mutations in the region encoding the active site of SIP kinase. This embodiment is preferred over the use of anti-sense constructs due to the very high homology between MAP kinases. For example, a mutated p48 SIP kinase with a Lys to Arg change in the kinase subdomain II has been made, and could be introduced into wild tobacco plants. […] Since the mutant p48 kinase would still serve as the substrate for upstream MAP kinase kinase and physically compete with the wild-type p48 SIP kinase, but would not transduce signal to downstream components, it may be possible to specifically block the pathway without affecting other MAP kinase cascades.

[2] = tested on: MBP; assay: Kinase activity assay during purification of p48 SIP kinase (MBP substrate); format: biochemical
Method: All purification procedures were carried out in a cold room or in a 4° C. chamber. Protein extract from about 200 grams of SA-treated cells was first fractionated by (NH4)2 SO4 precipitation. Saturated ammonium sulfate solution was slowly added to total protein extract to 30% of final concentration. After slowly stirring for 30 minutes, the precipitate was collected by centrifugation at 23,000×gfor 10 minutes. The pellets were then dissolved in a total of 30 mL of buffer A (25 mM Tris, pH 7.5, 1 mM EGTA, 10 mM β-glycerolphosphate, 0.1 mM Na3 VO4, 1 mM DTT, 5% glycerol) plus 1 mM phenylmethylsulfonyl fluoride, 5 μg/mL each of antipain, aprotinin, and leupeptin. […]
Unless specifically indicated, assays were performed at room temperature for 20 minutes in a final volume of 15 μl containing 0.5 mg/mL of MBP, 50 μM of γ-^32 P-ATP (about 3000-6000 cpm/pmole), 25 mM Tris pH 7.5, 5 mM MgCl2, 1 mM EGTA, 1 mM DTT, and enzyme. […] After washing with 150 mM H3 PO4 extensively, the phospho-protein was eluted with 0.4 mL of 1 N NaOH, and the radioactivity was determined by liquid scintillation counting. Total cpm in the reaction mixture was also determined in order to calculate the specific activity of the enzyme preparation. […]

[3] = molecular target: T1, p48 SIP kinase (Nicotiana tabacum, UniProt A0A1S3Z5Y0); assay: Kinetic properties, substrates, cofactors and pH dependence of p48 SIP kinase (in-solution kinase assay); format: biochemical, tobacco; conditions: pH of 5.5 or 10
T1 construct: endogenous in cells; host or cells: SA-treated tobacco suspension culture cells (purified through the poly-L-lysine agarose step)
T1 sequence (A0A1S3Z5Y0 whole entry): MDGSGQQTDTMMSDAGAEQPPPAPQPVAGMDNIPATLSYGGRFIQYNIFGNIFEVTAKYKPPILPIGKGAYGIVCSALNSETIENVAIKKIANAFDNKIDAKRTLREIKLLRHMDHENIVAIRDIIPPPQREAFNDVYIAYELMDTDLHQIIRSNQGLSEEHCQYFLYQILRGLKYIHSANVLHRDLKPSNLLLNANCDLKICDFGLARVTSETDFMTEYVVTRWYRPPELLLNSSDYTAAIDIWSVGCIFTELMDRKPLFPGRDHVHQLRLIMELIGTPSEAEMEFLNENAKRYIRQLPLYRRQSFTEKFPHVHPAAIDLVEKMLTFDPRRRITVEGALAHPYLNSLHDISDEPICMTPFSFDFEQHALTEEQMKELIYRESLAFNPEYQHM
Method: FIGS. 10A and 10B show a pair of graphs illustrating the effect of pH (FIG. 10A), Mg^2+ and Mn^2+ (FIG. 10B) on p48 SIP kinase activity. Approximately 0.5 unit of partially purified enzyme was used in each test. Buffers used for measuring the effect of pH were 50 mM 2-[N-morpholino]ethanesulfonic acid (Mes, pH 5.0-8.0, .circle-solid.), 50 mM Tris (pH 6.0-9.5, .tangle-solidup.), and 50 mM 3-[cyclohexylamino]-1-propanesulfonic acid (Caps, pH 9.0-12.0, .box-solid.). For testing the effects of Mg^2+ (.circle-solid.), and Mn^2+ (.tangle-solidup.), buffer B from the last purification step was first exchanged to Mg^2+ -free buffer using a desalting column. Mg^2+ was not added in reactions for testing the effect of Mn^2+.
FIG. 11 is a graph depicting the protein substrate preference of the p48 SIP kinase. About 0.5 unit of partially purified enzyme was used in each reaction. The assay conditions were as described below in Example 1, except various concentrations of MBP (.circle-solid.), histone (.tangle-solidup.), and casein (.box-solid.) were used.
Unless specifically indicated, assays were performed at room temperature for 20 minutes in a final volume of 15 μl containing 0.5 mg/mL of MBP, 50 μM of γ-^32 P-ATP (about 3000-6000 cpm/pmole), 25 mM Tris pH 7.5, 5 mM MgCl2, 1 mM EGTA, 1 mM DTT, and enzyme. The reaction was terminated by the addition of equal volume of 150 mM H3 PO4. Twenty μL of the mixture was spotted onto an 8-well phosphocellulose filter strip (Pierce, Ill.). After washing with 150 mM H3 PO4 extensively, the phospho-protein was eluted with 0.4 mL of 1 N NaOH, and the radioactivity was determined by liquid scintillation counting. Total cpm in the reaction mixture was also determined in order to calculate the specific activity of the enzyme preparation. One unit of p48 SIP kinase was defined as the amount of enzyme that will catalyze the transfer of 1 pmole of phosphate from ATP to MBP in 1 minute.

B1: p48 SIP kinase: novel protein kinase isolated from tobacco, activated by salicylic acid; Sequence I.D. No. 2 (protein)
chain: MDGSGQQTDTMMSDAGAEQPPTAPQPVAGMDNIPATLSHGGRFIQYNIFGNIFEVTAKYKPPILPIGKGAYGIVCSALNSETIENVAIKKIANAFDNKIDAKRTLREIKLLRHMDHENIVAIRDIIPPPQREAFNDVYIAYELMDTDLHQIIRSNQGLSEEHCQYFLYQILRGLKYIHSANVLHRDLKPSNLLLNANCDLKICDFGLARVTSETDFMTEYVVTRWYRPPELLLNSSDYTAAIDVWSVGCIFMELMDRKPLFPGRDHVHQLRLIMELIGTPSEAEMEFLNENAKRYIRQLPLYRRQSFTEKFPHVHPTAIDLVEKMLTFDPRRRITVEGALAHPYLNSLHDISDEPICMTPFSFDFEQHALTEEQMKELIYRESLAFNPEYQHM
modifications: phosphorylated on tyrosine residue(s); serine/threonine phosphorylation also required for activity; positions not given
Q: With B1 as the molecule, how does the “phosphorylation of MBP / basal phosphorylation activity” value [1] read?
A: Its value is “phosphorylates MBP”.

Q: What about the “specific activity” value ([2]; Superdex 200 HR 10/30 fraction) of the same molecule?
A: The value was 339600.0 pmol/min/mg.

Q: What about the specific activity ([2]; final purified enzyme) of the same molecule?
A: The specific activity was 340000 pmol/min/mg.

Q: What about the retained kinase activity [3] of the same molecule?
A: The retained kinase activity was “more than 50%”.
